Laboratory results from US20180273613A1 (SAMSUNG ELECTRONICS, published 2018).
One block for each binder: values may come before it.

What was measured:
hTie2-Fc (R&D Systems) = target: T1, hTie2-Fc (R&D Systems) (human, UniProt Q02763 23-745); test: Complex ELISA: Tie2-Fc coated (4 µg/ml), 10D6 2 µg/ml without Ang2, anti-mouse IgG-HRP, OD450
T1 construct: Bought fusion protein, coated on the plate at 4 ug/ml; also called hTie-2/Fc fusion protein; not shown: Fc of human IgG1
Procedure: (§1) A 96-well MaxiSorp™ flat-bottom plate (Nunc) was coated with 4 μg/ml of Tie2-Fc (R&D systems) or BSA (Sigma). Then, the plate was washed five times with 0.05% (v/v) Tween-20-containing PBS (Phosphate Buffer Saline) and blocked with 1% (v/v) BSA (Bovine serum albumin; Sigma)-containing PBS at a room temperature for 2 hours. 0.25 μg/ml of Ang2 and 2 μg/ml of 10D6 antibody were added to each well of the plate, which was allowed to react at a room temperature for 2 hours and then washed five times with PBST. After that, an anti-mouse IgG antibody (Sigma) conjugated with HRP diluted in 1% (v/v) BSA-containing PBS at a ratio of 1:5,000 (v/v) was added in an amount of 100 μl to each well to react at a room temperature for 1 hour and then, the plate was washed five times with PBST. Lastly, 100 μl (microliter) of TMB substrate (Cell Signaling) was added to each well of the plate to induce color development for 3 min. and then, the reaction was ceased by the addition of 100 μl of Stop solution (Cell Signaling) and OD450 values were measured on a plate reader (Molecular Devices).

BSA [1] = target: T2, BSA (bovine, UniProt P02769); test: Complex ELISA: BSA coated (4 µg/ml), 10D6 2 µg/ml, anti-mouse IgG-HRP, OD450
T2 construct: commercial preparation, not further described; also called Bovine serum albumin; BSA (Sigma)
Procedure: as §1

[2] = target: T3, recombinant hAng2 (C-His, R&D Systems) (human, UniProt O15123 19-496); test: SPR, BIAcore T100; hAng2 (C-His) captured on anti-His CM5 chip, antibody flowed
T3 construct: Bought protein (R&D Systems), captured on an anti-His chip in SPR; also called human Ang2 protein; Angiopoietin-2; not shown: C-terminal His tag
T3 sequence: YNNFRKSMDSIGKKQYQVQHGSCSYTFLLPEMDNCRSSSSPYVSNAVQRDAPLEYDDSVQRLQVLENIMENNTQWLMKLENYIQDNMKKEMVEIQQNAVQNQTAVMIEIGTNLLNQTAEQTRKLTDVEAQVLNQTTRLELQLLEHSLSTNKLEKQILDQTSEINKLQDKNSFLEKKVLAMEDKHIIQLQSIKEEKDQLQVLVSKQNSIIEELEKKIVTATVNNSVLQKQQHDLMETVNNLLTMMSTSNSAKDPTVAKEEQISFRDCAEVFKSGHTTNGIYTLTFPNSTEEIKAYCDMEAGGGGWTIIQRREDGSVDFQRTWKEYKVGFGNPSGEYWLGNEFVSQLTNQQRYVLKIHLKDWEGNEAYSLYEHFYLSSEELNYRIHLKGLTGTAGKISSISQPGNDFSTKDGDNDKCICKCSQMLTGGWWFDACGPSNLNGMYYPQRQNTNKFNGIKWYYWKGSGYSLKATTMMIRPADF
Procedure: The binding affinity (KD values) of the antibodies to human Ang2 protein was measured by an SPR method using a BIAcore T100 (GE Healthcare). 25 μg/ml anti-His antibody was immobilized on a CM5 sensor chip (GE healthcare) using a pH 5.0 acetate solution and an amine coupling kit (GE Healthcare). 6 μg/ml of a recombinant hAng2 (C-His, R&D Systems) protein was flowed onto the chip to be captured at 100 to 200 RU levels.

BSA [3] = target: T2, BSA; test: Complex ELISA: BSA coated (4 µg/ml), FLAG-Ang2 0.25 µg/ml and 10D6 2 µg/ml, Ang2 on the plate shown indirectly by bound 10D6 (anti-mouse IgG-HRP, OD450)
Procedure: as §1

T2 sequence (P02769 25-607 limits assumed): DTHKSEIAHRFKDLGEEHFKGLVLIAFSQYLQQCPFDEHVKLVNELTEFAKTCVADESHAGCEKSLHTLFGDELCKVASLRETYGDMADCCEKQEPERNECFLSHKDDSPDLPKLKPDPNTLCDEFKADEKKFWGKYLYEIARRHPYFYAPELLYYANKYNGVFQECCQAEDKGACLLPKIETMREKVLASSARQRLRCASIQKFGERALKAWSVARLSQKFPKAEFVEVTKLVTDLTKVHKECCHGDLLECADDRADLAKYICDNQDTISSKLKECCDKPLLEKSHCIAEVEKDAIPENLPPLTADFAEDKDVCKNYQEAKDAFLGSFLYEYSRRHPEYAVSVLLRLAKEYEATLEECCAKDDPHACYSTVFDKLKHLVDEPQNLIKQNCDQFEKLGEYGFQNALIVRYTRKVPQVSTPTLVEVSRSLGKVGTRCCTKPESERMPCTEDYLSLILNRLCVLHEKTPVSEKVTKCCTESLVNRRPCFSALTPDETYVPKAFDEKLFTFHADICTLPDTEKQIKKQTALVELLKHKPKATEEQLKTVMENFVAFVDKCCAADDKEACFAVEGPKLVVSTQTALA
T1 sequence (Q02763 23-745 limits assumed): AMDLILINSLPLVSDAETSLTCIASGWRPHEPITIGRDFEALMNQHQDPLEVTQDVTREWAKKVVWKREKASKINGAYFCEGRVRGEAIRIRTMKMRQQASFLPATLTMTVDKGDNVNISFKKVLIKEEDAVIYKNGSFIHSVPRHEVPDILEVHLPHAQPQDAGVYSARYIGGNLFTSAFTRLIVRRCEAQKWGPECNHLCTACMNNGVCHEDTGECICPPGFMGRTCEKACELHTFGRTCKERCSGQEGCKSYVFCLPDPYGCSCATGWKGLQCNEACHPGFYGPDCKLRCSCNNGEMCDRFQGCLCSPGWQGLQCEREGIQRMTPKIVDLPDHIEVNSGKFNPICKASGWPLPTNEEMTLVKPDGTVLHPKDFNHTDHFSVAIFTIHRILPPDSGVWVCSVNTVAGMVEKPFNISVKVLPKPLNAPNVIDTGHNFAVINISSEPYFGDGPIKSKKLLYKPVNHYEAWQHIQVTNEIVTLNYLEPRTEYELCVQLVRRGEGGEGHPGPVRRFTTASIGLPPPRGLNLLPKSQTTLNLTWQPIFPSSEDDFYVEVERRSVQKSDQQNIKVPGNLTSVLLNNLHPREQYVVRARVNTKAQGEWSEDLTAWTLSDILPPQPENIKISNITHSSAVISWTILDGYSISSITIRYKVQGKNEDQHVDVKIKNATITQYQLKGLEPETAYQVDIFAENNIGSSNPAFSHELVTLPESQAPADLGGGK

- binding result (hTie2-Fc (R&D Systems)): no binding (tested: 2 µg/ml)
- binding result (BSA [1]): no binding (tested: 2 µg/ml)
B1: SAIT-ANG2-AB-m10D6 (antibody, V domains shown)
VH: DVQLQESGPDLVKPSQSLSLTCTVTGYSITSDYAWNWIRQFPGNKLEWMGYINYSGNTDYNPSLKSRSSITRDTSKNQFFLQLNSVTTGDTATYYCARGNFEGAMDYWGQGTSVTVSS
VL: SIVMTQTPKFLLVSAGDRVTITCKASQSVSNDVAWYQQKPGQSPKLLIYYASNRYPGVPDRFTGSGYGTDFTFTISTVQAEDLAVYFCQQDYSSPWTFGGGTKLEIK
notes: Mouse monoclonal antibody from hybridoma KCLRF-BP-00295, purified on Protein G and detected with anti-mouse IgG; the mouse constant regions are not; also called mouse antibody 10D6; mouse anti-Ang2 antibody 10D6

- Kd [2]: 0.0454 nM
- kon [2]: 496000 M⁻¹ s⁻¹
B2: h10D6-OPTI-65 (antibody, V domains shown)
VH: QVQLQESGPGLVKPSETLSLTCAVSGYSITSDYAWNWIRQPPGKGLEWMGKISYSGKTDYNPSLKSRSTISRDTSKNQFSLKLSSVTAADTAVYYCARGNFEGAMDYWGQGTLVTVSS
VL: DIQMTQSPSSLSASVGDRVTITCKASQSVSNDVAWYQQKPGKAPKLLIYYASIPYPGVPSRFSGSGSGTDFTLTISSLQPEDFATYYCQQDYSSPWTFGQGTKLEIK
notes: also called HU2-6.6 / 10D6_VL-Hu1-2.4

- binding result (BSA [3]): no binding (tested: 0.25 µg/ml)
B3: FLAG-tagged hAng2 (ligand)
chain: T3 sequence
notes: not shown: FLAG tag
